Measurements as given in paper PMC10491184 (bioRxiv, 2023).
Several values for one entry are separate records, joined by “and”; a condition that tells them apart may be missing. Equal values may be shown once.

Assays:
[1] = target: Escherichia coli transcription termination factor ρ F89S (E. coli, UniProt P0AG30 1-419, F89S); experiment: SEC
[2] = target: Escherichia coli transcription termination factor ρ K115E (E. coli, UniProt P0AG30 1-419, K115E); experiment: SEC
[3] = target: Escherichia coli transcription termination factor ρ, wildtype (E. coli, UniProt P0AG30 1-419); experiment: cryo-EM structure
[4] = target: T1, Rho (transcription termination factor) wt (Escherichia coli, UniProt P0AG30 1-419); experiment: fluorescence anisotropy
[5] = target: T1, Rho (transcription termination factor) …; experiment: fluorescence anisotropy; remark: listed apart in the source
[6] = target: Rho (transcription termination factor) wt;Rof D14A (Escherichia coli;Escherichia coli, UniProt P0AG30;P0AFW8 1-419;1-84, |D14A); experiment: fluorescence anisotropy
[7] = target: Rho (transcription termination factor) wt;Rof Y13A (Escherichia coli;Escherichia coli, UniProt P0AG30;P0AFW8 1-419;1-84, |Y13A); experiment: fluorescence anisotropy

B1: Escherichia coli Rof, wildtype, tag-less (natural protein, E. coli)
chain: MNDTYQPINCDDYDNLELACQHHLMLTLELKDGEKLQAKASDLVSRKNVEYLVVEAAGETRELRLDKITSFSHPEIGTVVVSES
[1]
  binding result: binds
[2]
  binding result: binds
[3]
  stoichiometry N: 5 Rof molecules per ρ hexamer and 4 Rof molecules per ρ pentamer

B2: rU12 (ssRNA)
RNA: UUUUUUUUUUUU
[4]
  binding result: binds

B3: dC15 (ssDNA)
DNA: CCCCCCCCCCCCCCC
[5]
  Kd: 1 µM
[6]
  binding result: binds
[7]
  binding result: binds
